Substrate: O=CC(O)COP(=O)(O)O
Test: Michaelis-Menten kinetics of purified enzyme (Km), coupled alpha-GDH/NADH assay
Assay type: biochemical, Giardia duodenalis

B1: Giardia lamblia triosephosphate isomerase (GlTIM WT) (Giardia duodenalis) (protein)
chain: MPARRPFIGGNFKCNGSLDFIKSHVAAIAAHKIPDSVDVVIAPSAVHLSTAIAANTSKQLRIAAQNVYLEGNGAWTGETSVEMLQDMGLKHVIVGHSERRRIMGETDEQSAKKAKRALEKGMTVIFCVGETLDERKANRTMEVNIAQLEALGKELGESKMLWKEVVIAYEPVWSIGTGVVATPEQAEEVHVGLRKWFAEKVCAEGAQHIRIIYGGSANGSNCEKLGQCPNIDGFLVGGASLKPEFMTMIDILTKTRT
notes: recombinant His-tag/TEV GlTIM WT
  Km: 780 ± 60 µM
  kcat: 7670 ± 267 s⁻¹
  kcat/Km: 9.83e+06 M⁻¹ s⁻¹

Reference: PMC6586891, “On the molecular and cellular effects of omeprazole to further support its effectiveness as an antigiardial drug” (Scientific Reports, 2019)
